{
  "source": "patent US11672846B2",
  "about": "“Soluble bacterial and fungal proteins and methods and uses thereof in inhibiting and dispersing biofilm” (priority 2014, dated 2023)",
  "key": {"[1]": {"assay": "Reducing sugar assay on dPNAG", "type": "biochemical, S. aureus", "method": "Isolated dPNAG from S. aureus strain MN8m was solubilized in 6 N HCl at ˜10 mg/mL. 10 N NaOH was used to titrate the re-suspension until neutrality was reached, ˜pH 7-8. In a 50 μL reaction, 1 μM BpsB318-670 was incubated with 1-5 mg/mL of dPNAG in 100 mM HEPES pH 7.0 for 18 hours. The sample was split into two 20 μL aliquots and treated with DTT/3-Methyl-2-benzothiazolinone hydrazone hydrochloride hydrate and heated at 80° C. for 15 minutes. A solution of 0.5% (w/w) iron (III) ammonium sulfate dodecahydrate, 0.5% (w/w) sulfamic acid, and 0.25 N hydrochloric acid was added, mixed, and cooled to room temperature. […] Protein and dPNAG in buffer H were used as background controls."}, "[2]": {"test_system": "PNAG-overproducing E. coli biofilms", "assay": "Dispersal of pre-formed PNAG-dependent E. coli biofilms", "settings": "read-out: EC50 of degradation of pre-formed E. coli biofilm; 60 min, average starting OD595 of 0.5", "experimental": "Bacterial cultures expressing Psl were inoculated as stated above and were grown at 37° C. overnight with shaking at 200 rpm. All cultures were diluted in 1:100 in LB and arabinose was added to a final concentration of 0.5% (w/v) to induce Psl biosynthesis. Media containing the Psl-producing cultures were supplemented with 200 μg/mL ampicillin and 100 μg/mL kanamycin. The cultures were incubated statically for 24 h at 26° C. to allow for biofilm formation. After incubation non-adherent cells and media were removed by washing the plate with deionized water three times. The wells were filled with 95 μL of 100 mM sodium HEPES buffer pH 7.0 followed by 5 μL of varying concentrations of each hydrolytic enzyme (2 nM-5 μM). Reactions were allowed to proceed for up to 60 min at 25° C. on a rotating nutator at which time, the reaction was quenched by washing the plates with deionized water. The wells were stained with 200 μL of 0.1% (w/v) crystal violet for 10 min, and washed with water three times. Crystal violet dye from Psi cultures was solubilized in 100 μL of 95% ethanol for 10 min with rotation, after which time the absorbance was measured at 595 nm using a SpectraMax M2 from Molecular Devices (Sunnyvale, Calif.). The amount of biofilm is proportional to the absorbance from staining with crystal violet (Merritt et al 2005). All reactions were completed in at least triplicate and 100 mM sodium HEPES buffer pH 7.0 was used as an untreated control. The addition of 2.5 mg/mL kanamycin to culture prior to biofilm formation was used as a positive control as no cell growth occurs.\nPNAG-overproducing E. coli was grown at 37° C. overnight in LB broth supplement with 200 ug/mL ampicillin and 100 ug/mL kanamycin with shaking at 200 rpm. An E. coli μgaABCD knockout strain was used as a non-biofilm forming control for background straining."}, "[3]": {"test_system": "PNAG-overproducing E. coli", "assay": "Inhibition of PNAG-dependent E. coli biofilm formation (crystal violet)", "settings": "read-out: EC50 of E. coli biofilm formation prevention, static 24 h at 26° C.", "experimental": "In brief, PNAG-overproducing E. coli or S. carnosus was grown at 37° C. overnight in LB broth supplement with 200 μg/mL ampicillin and 100 μg/mL kanamycin, and 10 μg/mL tetracycline, respectively, with shaking at 200 rpm. Fresh cultures with antibiotic were prepared from the overnight culture using a 1:100 dilution, using LB broth for E. coli, and tryptic soy broth for S. carnosus. 95 μL of diluted culture was added to a sterile 96-well polystyrene round bottom microtiter plate and varying concentrations of protein (2 nM-5 μM) were added in 5 μL aliquots to give a final volume of 100 μL. The cultures were incubated statically for 24 h at 26° C. for E. coli, and 37° C. for S. carnosus, to allow for biofilm formation. To eliminate edge-effects, ˜200 μL of sterile water was placed in all outside wells and the plate was sealed with parafilm. After incubation non-adherent cells and media were removed by washing the plate with deionized water three times. The wells were stained with 150 μL of 0.1% (w/v) crystal violet for 10 min, and washed with water three times. The remaining dye was solubilized with 100 μL of 33% (v/v) acetic acid for 10 min with rotation, after which time the absorbance was measured at 595 nm using a SpectraMax M2 from Molecular Devices (Sunnyvale, Calif.). […] All reactions were completed in at least triplicates and buffer G was used as an untreated control. Either an E. coli pgaABCD knockout strain (DPGA) or S. carnosus treated with gentamycin, was used as a control for background straining."}, "[4]": {"test_system": "A. fumigatus GAG biofilm", "assay": "Inhibition of GAG-dependent A. fumigatus biofilm formation (crystal violet)", "type": "cell-based"}, "[5]": {"test_system": "A549 pulmonary epithelial cell line injured by A. fumigatus", "assay": "Chromium release epithelial cell damage assay", "settings": "recombinant Sph3 hydrolases, up to 24 h", "experimental": "The immortalized airway epithelial cell line A549 was loaded with chromium-51 by incubating monolayers grown in 24-well tissue culture plates with 3 mCi of ^51Cr at 37° C. in 5% CO2 for 24 h. Excess chromium was removed by washing with Hank's Balanced Salt Solution (HBSS). […] For testing germ tubes, conidia were grown for 7 h in SAB media at 37° C., then the fungus was collected and resuspended in DF12K media before 0.5 μM of hydrolase was added. The germ tubes were incubated with hydrolase for 1 h before being added to the A549 cells. After 16, 20 and 24 h of co-incubation, an aliquot of the medium above the cells was retrieved and replaced with fresh media. The cells were then lysed with 6 N NaOH and the lysate collected. The ^51Cr content of the medium and lysates was then measured in a gamma counter and the extent of epithelial cell damage was calculated as a function of the degree of ^51Cr release. Each strain was tested in triplicate, and all results were corrected for spontaneous chromium release by uninfected epithelial cells.\nThe methodology for prevention of epithelial cell damage caused by A. fumigatus using Sph352-298 is identical to that previously described in Example 19 for the use PelA47-303."}, "[6]": {"test_system": "pre-formed A. fumigatus GAG biofilms", "type": "cell-based", "settings": "for dispersal of pre-formed GAG biofilm (in words): crystal violet"}, "[7]": {"settings": "purified protein"}, "[8]": {"assay": "Reducing sugar assay on purified GAG", "type": "biochemical, A. fumigatus", "settings": "10-20 μM protein, 26° C., 24 h", "method": "Crude GAG was isolated from A. fumigatus biofilms. 200 μL GAG aliquots were centrifuged to pellet the gelatinous fraction. The pellets were washed twice with 350 μL PBS. The wash procedure included vortexing for 5 min, sonicated in a bath for 3 min, and manual mixing by pipetting to reach homogeneity. The final pellet was resuspended in 200 μL of PBS. Samples were treated with 10-20 μM protein and incubated at 26° C. Samples were taken at 24 h. GAG hydrolysis was quantified using a reducing sugar assay as described previously (Anthon & Barrett 2002) with slight modifications. Briefly, 20 μL of enzyme reaction was mixed with 20 μL of 0.5 M NaOH and 20 μL of MBTH/DTT solution (1.5 mg/L 3-methyl-2-benzothiazolinone hydrazine (MBTH) and 0.5 mg/L DTT). The samples were incubated at 80° C. for 15 min before the addition of 40 μL of acidic iron reagent (0.5% (FeNH4(SO4)2).12 H2O, 0.5% sulfamic acid, and 0.25 N HCl). Samples were diluted two-fold in water, before the absorbance was quantified at 620 nm."}},
  "note": "Entries after “also recorded” stand apart in the source; their conditions may differ. Where two headings read alike, the source gives them in different places.",
  "data": [
    {"molecule": "BpsB27-701: full-length BpsB residues 27-701, B. bronchiseptica RB50, SEQ ID NO: 18 (protein, listed as Bordetella bronchiseptica) YKVDMLPPPDPDDGLTFRVLCMHDVRDNLRASFADMPDQFAIETRTLTDLFEWIRVKGFNPISMQQIIDSRAGVRPLPPRPILLTFDDGYASTYTKVFPLLKKFNYPAVVAVVTSWTDAPAGTKIRLSPKIEVPHDFFMTWAQLREMAQSGLVELASHSHNLHRGVLANPQGNEQPAASSRQYLPASGRYENDAEYRARVRQDLKTSADLIREHTGVTIRSIVWPYGAHNRDTDQVAAEVGLNIGLTLQPGPNTPDVALTQIRRSLVDYEVNVATVARAMREPVSYHGQVRPIERIVQVDLDYIYDPDPEQQNRNLGQLIDRMKDLAPSAVYLQAFADPKGDGDITEVYFPNRHLPMRADLFNRVAWQLKTRAGVMVYAWLPVLTFSVPPGNPAYGKVVQSTTRKPGERGLGSPTRLSPFHPDAHRVISEIYEDLAKAAHFDGLLFHDDAVLDDTEDSSPEALATYQGWGLPPDIAAIRADPKLAQQWSKGKIRYLIDFTMHLRHIVSGYQNDRDMVVARNLYAQPVLDPVSEAWYGQSLPEFLKSYDFVALMAMPNMEGAARPEQWMRQLVAAVARQKGLDRTIFELQARDWRVGKPIDTEILRRQMVQLRSLGAINYGYYPDDFIANHPDAEALRDVMSLKSTLEKRRLTKAQELSRQTTLYGSASQAEPTQR", "values": [
      {"measurement": "dPNAG hydrolysis (in words)", "setting": "[1]", "result": "hydrolyze dPNAG"},
      {"measurement": "EC50", "setting": "[2]", "result": "~170", "unit": "nM"},
      {"measurement": "EC50", "setting": "[3]", "result": "~40", "unit": "nM"}
    ]},
    {"molecule": "Sph3AN(43-299): Sph3 ortholog residues 43-299, Aspergillus nidulans FGSC A4, SEQ ID NO: 23 (protein, Aspergillus nidulans) RRKNNNMGPKAKVFVPLYVYPAPGAWDPLVNVITAHPDVNFTVVVNPGSGPGPNPLPDRNYTQEIPRLTAHDNVRVLGYVATTYAKRNISSVRNDIETYAAWPTISANPKLAVRGIFFDETPQQYNASDLAYLEELTSVVKNTPGLGPDHFVFHNPGVVPDPRYLSTADSTVVFEATYDTFQDRDGARLFETIPNSNRSQLCAVVHSVPDSVEGSELRKFVKQARRVADEIFVTHLSTNYYASFGDKWDDFVRLMAQ", "values": [
      {"measurement": "inhibition of A. fumigatus biofilm formation by recombinant Sph3 (in words)", "setting": "[4]", "result": "inhibit the formation of A. fumigatus biofilms in a dose dependent manner"},
      {"measurement": "epithelial cell damage by A. fumigatus, chromium release", "setting": "[5]", "result": "completely protected epithelial cells from damage by A. fumigatus for 24 h"},
      {"measurement": "epithelial cell damage by A. fumigatus, chromium release", "setting": "[5]; listed as Sph3 from A. nidulans", "result": "reduced fungal damage to epithelial cells"}
    ]},
    {"molecule": "GmetPelA23-277: PelA ortholog, residues 23-277, from Geobacter metallireducens, SEQ ID NO: 14 (protein, listed as Geobacter metallireducens) PPLSVALYYGKQPPVNDLHAFDIVVIDPDSGLTPSEYGSGRSELFAYVSVGEADTARSYTKQMPDRWIIGKNPVWKSKIVDVSSEEWKQFFLDDVVEPLWQAGYRGFFLDTLDSYLIAAPTEAHPRMEAGLVSVVRAIRQRHPEARLILNRGFEIFDRVKDLVYAVAAESLFQNFNTVSGKYGAVDDKDRSWLTSRLNVIRETGVPVIAIDYVDPGNRPLMRETADKIRSLGFTPWVTDKDLAGLGIGSVEVMPRTVLGLYDGGEGAG", "values": [
      {"measurement": "dispersal of pre-formed GAG biofilm (in words)", "setting": "[6]", "result": "less efficacious"},
      {"measurement": "dispersal of pre-formed GAG biofilm (in words)", "setting": "[6]; listed as GmPelA23-277", "result": "less effective at eliminating GAG biofilms"}
    ]},
    {"molecule": "PgaB310-672: PgaB C-terminal hydrolase domain residues 310-672, SEQ ID NO: 17 (protein, listed as Escherichia coli) EKSPQRIMHIDLDYVYDENLQQMDRNIDVLIQRVKDMQISTVYLQAFADPDGDGLVKEVWFPNRLLPMKADIFSRVAWQLRTRSGVNIYAWMPVLSWDLDPTLTRVKYLPTGEKKAQIHPEQYHRLSPFDDRVRAQVGMLYEDLAGHAAFDGILFHDDALLSDYEDASAPAITAYQQAGFSGSLSEIRQNPEQFKQWARFKSRALTDFTLELSARVKAIRGPHIKTARNIFALPVIQPESEAWFAQNYADFLKSYDWTAIMAMPYLEGVAEKSADQWLIQLTNQIKNIPQAKDKSILELQAQNWQKNGQHQAISSQQLAHWMSLLQLNGVKNYGYYPDNFLHNQPEIDLIRPEFSTAWYPKND", "values": [
      {"measurement": "dPNAG hydrolysis (in words)", "setting": "[1]", "result": "hydrolyze dPNAG"},
      {"measurement": "concentration to which the protein could be concentrated", "setting": "[7]", "result": "8000 to 10000", "unit": "µg/mL"},
      {"measurement": "EC50", "setting": "[2]", "result": 200, "unit": "nM"},
      {"measurement": "EC50", "setting": "[3]", "result": "~230", "unit": "nM"}
    ]},
    {"molecule": "PgaB22-672: PgaB residues 22-672, E. coli K-12 MG1655, SEQ ID NO: 16 (protein, listed as Escherichia coli) ISQSRTSFIPPQDRESLLAEQPWPHNGFVAISWHNVEDEAADQRFMSVRTSALREQFAWLRENGYQPVSIAQIREAHRGGKPLPEKAVVLTFDDGYQSFYTRVFPILQAFQWPAVWAPVGSWVDTPADKQVKFGDELVDREYFATWQQVREVARSRLVELASHTWNSHYGIQANATGSLLPVYVNRAYFTDHARYETAAEYRERIRLDAVKMTEYLRTKVEVNPHVFVWPYGEANGIAIEELKKLGYDMFFTLESGLANASQLDSIPRVLIANNPSLKEFAQQIITVQEKSPQRIMHIDLDYVYDENLQQMDRNIDVLIQRVKDMQISTVYLQAFADPDGDGLVKEVWFPNRLLPMKADIFSRVAWQLRTRSGVNIYAWMPVLSWDLDPTLTRVKYLPTGEKKAQIHPEQYHRLSPFDDRVRAQVGMLYEDLAGHAAFDGILFHDDALLSDYEDASAPAITAYQQAGFSGSLSEIRQNPEQFKQWARFKSRALTDFTLELSARVKAIRGPHIKTARNIFALPVIQPESEAWFAQNYADFLKSYDWTAIMAMPYLEGVAEKSADQWLIQLTNQIKNIPQAKDKSILELQAQNWQKNGQHQAISSQQLAHWMSLLQLNGVKNYGYYPDNFLHNQPEIDLIRPEFSTAWYPKND", "values": [
      {"measurement": "dPNAG hydrolysis (in words)", "setting": "[1]", "result": "hydrolyze dPNAG"},
      {"measurement": "EC50", "setting": "[2]", "result": "> 1000", "unit": "nM"},
      {"measurement": "EC50", "setting": "[3]", "result": "~90", "unit": "nM"}
    ]},
    {"molecule": "Sph352-298: soluble Sph3 residues 52-298, Aspergillus fumigatus Af293, SEQ ID NO: 20 (protein, listed as Aspergillus fumigatus) SKVFVPLYVYPAPGAWTPLEDVISKHPDVNFTVVINPGSGPGPNALPDGNYTREIPKLASYENVRLLGYVATTYAKRNISLVRRDIETYAAWPTNSSNPALAVRGIFFDETPQQYDEDALAYLQELTDVVKNTPGLGPDHYVVHNPGAIPDSRYLSTADSTVVFEATYDTFQERHGAKLFEAIPDSNRSQLCAVIHSVPESVEGSALRSLVKQVRKVADEIFITHLDTDYYASFGRQWPEFVDLMGK", "values": [
      {"measurement": "inhibition of A. fumigatus biofilm formation by recombinant Sph3 (in words)", "setting": "[4]", "result": "inhibit the formation of A. fumigatus biofilms in a dose dependent manner"},
      {"measurement": "GAG hydrolysis, reducing ends (in words)", "setting": "[8]", "result": "number of reducing ends in solution increased"},
      {"measurement": "activity against preformed biofilms of multiple A. fumigatus strains / clinical isolates", "setting": "[6]", "result": "dose-dependent activity; also recorded: active against multiple strains of A. fumigatus"},
      {"measurement": "concentration sufficient at preventing GAG biofilm formation", "setting": "[6]; FIG. 36, crystal violet", "result": 280, "unit": "nM"},
      {"measurement": "dispersal of pre-formed GAG biofilm (in words)", "setting": "[6]", "result": "elimination of the GAG biofilms; also recorded: capable of disrupting GAG-dependent biofilms"},
      {"measurement": "concentration to which the protein could be concentrated", "setting": "[7]", "result": "8000 to 10000", "unit": "µg/mL"},
      {"measurement": "epithelial cell damage by A. fumigatus, chromium release", "setting": "[5]", "result": "reduced fungal damage to epithelial cells"}
    ]}
  ]
}
